B1: PRT-533 (protein)
chain: MANQEIRYSSDSEWANKKVWVYGITPPEEGAWKYSTYYLPWKKEYGWYDCNKRNPTADGMMCWAATASNLLHWWIAQNKEYIDLYGDKYKGPDKINFNGEQMFDVKEYIDPLDKPQESDIFQCFIDKSFADLSTKHEAGYGDAGINWFIHGIIPSSPAHGPTPVKLDYPYNPAGYFKDVFPRGDGVVLLGNNGDFKELSKERFNETIKDALKNKKAIGLSIGPVNVRSSHVVTIWGAEFDENGDVSYIYMADNNDRWGVGCIRYQIVYEEGGTYTCYKTEIIPSDRPIPINRLVTLELGEEYWKQTNLEHHHHHH
B2: PRT-375 (protein)
chain: MSQTEDSESLQRLRDIEDFQAEKKKQNVVYTKWLDGVDVKDHDFRKIVDGNEAYYATPLLNGRGFYDINKDFNRDNDKCAAAVAANMFHYWLDRNRDNVDRFLRQNPEKHGIIELPDGQLKLSDFLNTYESDDGYRDKSKLFDFISENFNGPVWTDKLLDNYINGYAYNYKYGRLIEDSTKNTSKINFFKEVFNEKILTNNHSIRNQNELSVLLSEALYTGKAIGLSYGPAGTRHSLGHIISVWGADLDADGNVVAIYVTDSDDKKLTIGDERVGLKRYKISTDDEGRLRLTAYEETHNTGGQIRGLWTLDTGKQAWADYFDKTEQTGTDQAEQ
B3: PRT-586 (protein)
chain: MANQEIRYSEETPKTITSVWTKGVTPPTDFIYNEDVLHAPYIANQGWYDITKTFNGKDDLLCGAATAGNMLHWWFDQNKEQIERYLKKHPEKQKINFNGEQMFDVKEAIDTKDSQTDSKLFEYFKDKAFPYLSTKHLGVFPDHVIDMFINGYRLSLTNHGPTPVKRGTKDPRGGIFDAVFTRGDQSKLLTSRHDFKEKTLNEISDLIKQELTEGKALGLSHTYANVRINHVINLWGADFNAEGNLEAIYVTDSDSNASIGMKKYYVGVNSAGKVAISAKEIEGDNIGAQVLGLFTLSTGQDIWEQTNLEHHHHHH
B4: PRT-595 (protein)
chain: MANQEIRYSEETPSTITSVWTKGVTPPTDFIQNEDVLHAPYIANQGWYDITKTFNGKDDLLCGAATAGNMLHWWFDQNKEQIENYLKKHPEKQKINFNGEQMFDVKEAIDTKDSQTDSALFEYFKDKAFPYLSTKHLGVFPDHVIDMFINGYRLSLTNHGPTPVKRGTKDPRGGIFDAVFTRGDQSKLLTSRHDFKEKNLNEISDLIKQELTEGKALGLSHTYANVRINHVINLWGADFNAEGNLEAIYVTDSDSNASIGMKKYYVGVNSAGKVAISAKEIEGDNIGAQVLGLFTLSTGQDIWNQTNLEHHHHHH
B5: PRT-566 (protein)
chain: MANQEIRYSEETPSTITSVWTKGVTPPTQFIQNEDVLHAPYIANQGWYDITKTFNGKDDLLCGAATAGNMLHWWFDQNKEQIENYLKKHPEKQKINFNGEQMFDVKEAIDTKDSQTDSALFEYFKDKAFPYLSTKHLGVFPDHVIDMFINGYRLSLTNHGPTPVKRGTKDPRGGIFDAVFTRGDQSKLLTSRHDFKEKTLNEISDLIKQELTEGKALGLSHTYANVRINHVINLWGADFNAEGNLEAIYVTDSDSNASIGMKKYYVGVNSAGKVAISAKEIEGDNIGAQVLGLFTLSTGQDIWNQTNLEHHHHHH
B6: PRT-576 (protein)
chain: MANQEIRYSKATPSTITSVWTKGVTPPENFIYNEDVLHAPYLANQGWYDITKTFNGKDDLLCGAATAGNMLHWWFDQNKEQIERYLKKHPEKQKINFNGEQMFDVKEAIDTKDSQTNSKLFEYFKDKAFPYLSTKHLGVFPDHVIDMFINGYRLSLTNHGPTPVKEQTKDPRGGIFDAVFTRGDQSKLLTSRHDFKEKTLNEISDLIKQELTEGKALGLSHTYANVRINHVINLWGADFNAEGNLEAIYVTDSDSNASIGMKKYYVGVNSAGKVAISAKEIEGDNIGAQVLGLFTLSTGQDIWQQTNLEHHHHHH
B7: PRT-245 (protein)
chain: MVTSVWTKGVTPPANFTQGEDVFHAPYVANQGWYDITKLFNGKDDLLCGAATAGNMLHWWFDQNKDQIKRYLEEHPEKQKINFNGEQMFDVKEAIDTKNHQLDSKLFEYFLEKAFPNLSTKHLGVFPDHVIDMFINGYRLSLLNHGPTPVKEGSKDPRGGIFDAVFTRGDQSKLLTSRHDFKEKNLKEISDLIKKELTEGKALGLSHTYANGRINHVINLWGADFDSNGNLKAIAVTDSDSNASIGMKKYFVGVNSSGKVAISAKEIKEDNIGAQVLGLFTLSTGQDSWNQTN
B8: PRT-553 (protein)
chain: MANQEIRYSEETPKTITSIWTKGVTPPTDFIKNEDVLHAPYVANQGWYDITKTFNGKDDLLCGAATAGNMLHWWFDQNKEEIENYLKKHPEKQKINFNGEQMFDVKEAIDTKDSQTDSKLFEYFKDKAFPYLSTKHLGVFPDHVIDMFINGYRLSLTNHGPTPVKRGTKDPRGGIFDAVFTRGDQTKLLTERHDFKEKTLNEISDLIKQELTEGKALGLSHTYANVRINHVINLWGADFNSEGNLEAIYVTDSDSNASIGMKKYYVGVNAAGKVAISAKEIEDDNIGAQVLGLFTLSTGKDIWEQTNLEHHHHHH
B9: PRT-526 (protein)
chain: MANQEIRYSEETPKTITSVWTKGVTPPTDFIKNEDVLHAPYIANQGWYDITKTFNGKDDLLCGAATAGNMLHWWFDQNKEEIERYLKKHPEKQKINFNGEQMFDVKEAIDTKDSQTDSALFEYFKDKAFPNLSTKHLGVMPDHVLDMFINGYYLSLGKHGPTPVKRGTKDPRGGIFDAVFTRGDQSKLLTSRHDFKEKTLKEISDLIKQELTEGKALALSHTYANVRINHVINLWGADFDSEGNLEAIYVTDSDSNASIGMKKYYVGVNSAGKVAISAKEIEGDNIGAQVLGLFTLSTGQDIWEQTNLEHHHHHH
B10: PRT-582 (protein)
chain: MANQEIRYSKAKPKVITSVWTKGVTPPTQFTKNEDVFHAPYLANQGWYDITKTFNGKDDLLCGAATAGNMLHWWFDQNKEQIERYLKKHPEKQKINFNGEQMFDVKEAIDTKDSQTNSKLFNYFKDKAFPYLSTKHLGVFPDHVIDMFINGYRLSLTNHGPTPVKEQNKDPRGGIFDDVFTRGDQSKLLTSRHDFKEKTLKEISDLIKQELKEGKALGLSHTYANVRINHVINLWGADFDAEGNLVAIYVTDSDSNASIGMKKYYVGVNSAGKVAISAKEIEDDNIGAQVLGLFTLSTGKDIWEKTNLEHHHHHH
B11: PRT-192 (protein)
chain: MANQEIRYSEVTPYHVTSVWTKGVTPPANFTQGEDVFHAPYVANQGWYDITKTFNGKDDLLCGAATAGNMLHWWFDQNKDQIKRYLEEHPEKQKINFNGEQMFDVKEAIDTKNHQLDSKLFEYFKEKAFPYLSTKHLGVFPDHVIDMFINGYRLSLTNHGPTPVKEGSKDPRGGIFDAVFTRGDQSKLLTSRHDFKEKNLKEISDLIKKELTEGKALGLSHTYANVRINHVINLWGADFDSNGNLKAIYVTDSDDKKLTISNASIGMKKYFVGVNSAGKVAISAKEIKEDNIGAQVLGLFTLSTGQDSWNQTN
B12: PRT-193 (protein)
chain: MANQEIRYSEVTPYHVTSVWTKGVTPPANFTQGEDVFHAPYVANQGWYDITKTFNGKDDLLCGAATAGNMLHWWFDQNKDQIKRYLEEHPEKQKINFNGEQMFDVKEAIDTKNHQLDSKLFEYFKEKAFPYLSTKHLGVFPDHVIDMFINGYRLSLTNHGPTPVKEGSKDPRGGIFDAVFTRGDQSKLLTSRHDFKEKNLKEISDLIKKELTEGKALGLSHTYANVRINHVINLWGADFDSNGNLKAIYVTDSDDKKLTIGDERIGMKKYFVGVNSAGKVAISAKEIKEDNIGAQVLGLFTLSTGQDSWNQTN
B13: PRT-191 (protein)
chain: MANQEIRYSEVTPYHVTSVWTKGVTPPANFTQGEDVFHAPYVANQGWYDITKTFNGKDDLLCGAATAGNMLHWWFDQNKDQIKRYLEEHPEKQKINFNGEQMFDVKEAIDTKNHQLDSKLFEYFKEKAFPYLSTKHLGVFPDHVIDMFINGYRLSLTNHGPTPVKEGSKDPRGGIFDAVFTRGDQSKLLTSRHDFKEKNLKEISDLIKKELTEGKALGLSHTYANVRHSINHVINLWGADFDSNGNLKAIYVTDSDSNASIGMKKYFVGVNSAGKVAISAKEIKEDNIGAQVLGLFTLSTGQDSWNQTN

The target in one data set is pooled human IgG (human IgG1, 2, 3 and 4).
Regarding B1, the Enzyme Activity Endpoint Assay: Fab′2 turned out to be 0 ng/µL, the Enzyme Activity Endpoint Assay: Fc was found to be 0 ng/µL, the Enzyme Activity Endpoint Assay: IgG was 1140 ng/µL and the Enzyme Activity Endpoint Assay: scIgG turned out to be 0 ng/µL.
B2 showed an Enzyme Activity Endpoint Assay: Fab′2 of 170 ng/µL, an Enzyme Activity Endpoint Assay: Fc of 115 ng/µL, an Enzyme Activity Endpoint Assay: IgG of 0 ng/µL and an Enzyme Activity Endpoint Assay: scIgG of 180 ng/µL.
For B3, in that order: 478 ng/µL, 322 ng/µL, 77 ng/µL and 458 ng/µL.
For B4, in that order: 1040 ng/µL, 452 ng/µL, 0 ng/µL and 0 ng/µL.
The protein B5 yielded an Enzyme Activity Endpoint Assay: Fab′2 of 621 ng/µL, an Enzyme Activity Endpoint Assay: Fc of 366 ng/µL, an Enzyme Activity Endpoint Assay: IgG of 0 ng/µL and an Enzyme Activity Endpoint Assay: scIgG of 0 ng/µL.
Protein B6 returned an Enzyme Activity Endpoint Assay: Fab′2 of 903 ng/µL, an Enzyme Activity Endpoint Assay: Fc of 365 ng/µL, an Enzyme Activity Endpoint Assay: IgG of 0 ng/µL and an Enzyme Activity Endpoint Assay: scIgG of 0 ng/µL.
B7 showed an Enzyme Activity Endpoint Assay: Fab′2 of 423 ng/µL, an Enzyme Activity Endpoint Assay: Fc of 277 ng/µL, an Enzyme Activity Endpoint Assay: IgG of 46 ng/µL and an Enzyme Activity Endpoint Assay: scIgG of 204 ng/µL.
For B8, in that order: 79 ng/µL, 229 ng/µL, 111 ng/µL and 764 ng/µL.
For B9 the same measures were 246 ng/µL, 379 ng/µL, 110 ng/µL and 627 ng/µL.
B10 had an Enzyme Activity Endpoint Assay: Fab′2 of 28 ng/µL, an Enzyme Activity Endpoint Assay: Fc of 183 ng/µL, an Enzyme Activity Endpoint Assay: IgG of 329 ng/µL and an Enzyme Activity Endpoint Assay: scIgG of 754 ng/µL.

The target in the next data set is pooled human IgG (human IgG1,2,3 and 4).
Regarding B11, the Enzyme Activity Endpoint Assay: Fab'2 amounted to 24 ng/µL, the Enzyme Activity Endpoint Assay: Fc was 204 ng/µL, the Enzyme Activity Endpoint Assay: IgG amounted to 109 ng/µL and the Enzyme Activity Endpoint Assay: scIgG came out at 461 ng/µL.
B12 yielded an Enzyme Activity Endpoint Assay: Fab'2 of 39 ng/µL, an Enzyme Activity Endpoint Assay: Fc of 193 ng/µL, an Enzyme Activity Endpoint Assay: IgG of 181 ng/µL and an Enzyme Activity Endpoint Assay: scIgG of 355 ng/µL.
In turn, B13 gave an Enzyme Activity Endpoint Assay: Fab'2 of 36 ng/µL, an Enzyme Activity Endpoint Assay: Fc of 183 ng/µL, an Enzyme Activity Endpoint Assay: IgG of 161 ng/µL and an Enzyme Activity Endpoint Assay: scIgG of 358 ng/µL.

For the origin of these results see patent US20250027068.
